# PMC5512693, “Bacterial RadA is a DnaB-type helicase interacting with RecA to promote bidirectional D-loop extension” (Nature Communications, 2017)
# Columns and labels:
# RadA (RadAFL) = system: T1, RadA (RadAFL); test: coupled spectrophotometric ATPase assay (pyruvate kinase / lactate dehydrogenase, NADH at […] nm), Michaelis-Menten fit; assay type: biochemical, Streptococcus pneumoniae; details: ATP 0-2 mM, 600 nM RadA, 2 uM nt phiX174 ssDNA, 4 mM Mg(OAc)2, pH 7.5, 37 C
# T1 construct: full length, 453 residues, hexamer; recombinant in E. coli; ATPase work with native untagged protein (pET21d); crystal with SeMet RadAFL (pET-radA or StrepII-tagged IBA13-radA), C4 domain (1-35) unresolved
# [1] = biological target: P domain of pneumococcal RadA (RadAP) (S. pneumoniae); test: SEC-MALS; samples at 2 mg/ml injected on Superdex200 Increase coupled to MALS and refractive index detection, 0.4 ml/min, 298 K; hexamer independent of nucleotide and Mg2+
# [2] = biological target: RadA K101A, purified without tag (S. pneumoniae); test: SEC; gel filtration of purified untagged RadA proteins on Superdex 200 increase 10/300 in 25 mM Tris pH 8, 200 mM NaCl, 20% glycerol; calibrated with 43, 158 and 440 kDa standards
# [3] = biological target: RadA K251A, purified without tag (S. pneumoniae); test: as above
# [4] = biological target: RadA R253A, purified without tag (S. pneumoniae); test: as above
# [5] = biological target: full-length pneumococcal RadA (RadAFL), preparation for structural analysis (S. pneumoniae); test: SEC-MALS; samples at 2 mg/ml injected on Superdex200 Increase coupled to MALS and refractive index detection, 0.4 ml/min, 298 K; hexamer independent of nucleotide and Mg2+
compound,measurement,setting,value
Nc1ncnc2c1ncn2[C@@H]1O[C@H](COP(=O)(O)OP(=O)(O)OP(=O)(O)O)[C@@H](O)[C@H]1O [ATP],Km,RadA (RadAFL),150 µM
P domain of pneumococcal RadA (RadAP) (domain or fragment),stoichiometry N,[1],6
"RadA K101A, purified without tag (enzyme)",stoichiometry N,[2],6
"RadA K251A, purified without tag (enzyme)",stoichiometry N,[3],6
"RadA R253A, purified without tag (enzyme)",stoichiometry N,[4],6
"full-length pneumococcal RadA (RadAFL), preparation for structural analysis (enzyme)",stoichiometry N,[5],6
